The assay addresses IgG-CD4 protein (fusion protein of human CD4 domains 1 and 2 with human IgG1 Fc at the C terminus) (human). The experiment in a line: BLI; Octet QKe; IgG-CD4 loaded onto protein G sensors at 20 ug/ml in ForteBio kinetics buffer; serial dilutions of gp120 (600 nM to 0.4 nM) in solution; Kd = koff/kon, 1:1 fitting model; two GMP lots of each gp120. As to conditions: both partners purified.

The results in this text go back to PMC7081908, “Glycan Profiles of gp120 Protein Vaccines from Four Major HIV-1 Subtypes Produced from Different Host Cell Lines under Non-GMP or GMP Conditions” (Journal of Virology, 2020).

Values joined by “and” are separate entries in the source; they are usually repeats but may differ in a detail not shown here. Equal values may be shown once.

In general, Kd refers to the constant that tells how readily two partners part at equilibrium. Lower therefore signals higher affinity.

B1: GMP-grade gp120 protein, HIV-1 clade A isolate 92UG037.8 (natural protein)
chain: not shown
Regarding B1, the dissociation constant Kd was 5.48 nM and 3.62 nM.
